Data on one substance can be found in article PMC2980497.

This data set concerns the target MutL (Escherichia coli) (UniProt P23367). As to the kind of experiment: single-molecule flow-extension. The note with it: 25 mM NaCl, 0.5 mM ATP, 2.5 pN; S0.5, multiple MutL bind; smFRET: 20 mM Tris-HCl pH 7.5, 25-150 mM NaCl (25 mM standard), 0.1 mM EDTA, 3 mM MgCl2, 0.5 mM ATP, 1 mM DTT, oxygen scavenger with 2 mM trolox ….
UniProt P23367, sequence (P23367 whole entry): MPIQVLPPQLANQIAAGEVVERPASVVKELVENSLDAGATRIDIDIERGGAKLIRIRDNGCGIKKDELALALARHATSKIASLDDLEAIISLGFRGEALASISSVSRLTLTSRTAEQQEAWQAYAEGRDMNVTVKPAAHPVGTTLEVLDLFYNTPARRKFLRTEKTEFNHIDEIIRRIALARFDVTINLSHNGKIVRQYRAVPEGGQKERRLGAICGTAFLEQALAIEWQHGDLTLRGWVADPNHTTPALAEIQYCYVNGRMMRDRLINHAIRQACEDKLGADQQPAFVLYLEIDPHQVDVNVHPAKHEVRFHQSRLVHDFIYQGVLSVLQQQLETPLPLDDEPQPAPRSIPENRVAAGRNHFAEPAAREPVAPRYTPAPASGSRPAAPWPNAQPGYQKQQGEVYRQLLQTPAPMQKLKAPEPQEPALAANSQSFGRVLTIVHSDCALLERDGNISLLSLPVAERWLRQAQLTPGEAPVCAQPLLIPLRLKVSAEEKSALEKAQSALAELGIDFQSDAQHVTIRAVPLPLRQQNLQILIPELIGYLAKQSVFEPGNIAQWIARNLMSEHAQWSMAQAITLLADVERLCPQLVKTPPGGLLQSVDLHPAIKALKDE

5.3 kb ssDNA showed a K half of 24 nM.
